# Measurements reported in paper PMC12484072 (Frontiers in Microbiology, 2025).
# Where “and” joins values, the source holds several entries; their conditions need not be identical. Equal values may be shown once. Bridge positions count the residues as written; N and C are the ends. Square brackets hold non-standard residues; d marks the D form. Ends that are not written are not given here. dOrn = NCCC[C@@H](N)C(=O)O
# Target: T1, SaNsrP-ECD, soluble extracellular domain of SaNsrP (S. agalactiae)
# T1 construct: also called SaNsrFP ECD
# Test: other fluorescence titration
# Settings: both partners purified
binder,measurement,value
ICL[dE]IK[dOrn]I[dF]H[dD]N (lactam 6-C; also: N-terminal thiazoline: Ile1-Cys2 condensed) [bacitracin],Kd,259 µM and 304 µM
